Source: PMC8956665, “Structural and molecular rationale for the diversification of resistance mediated by the Antibiotic_NAT family” (Communications Biology, 2022)

Target: meta-AAC0038^H168A (not stated (soil metagenome))
Assay: crystal structure

Substance meta-AAC0038^H168A (enzyme) has a stoichiometry N of 2.
